{"source": "patent US20220380433A1", "key": {"[1]": {"target": "H63 CAR (CD8 signal peptide-H63-human CD8 hinge region-human CD8 transmembrane region-human 4-1BB costimulatory domain-CD3zeta signaling domain), on H63 CAR-T lymphocytes", "sequence (chain, as listed by the source)": "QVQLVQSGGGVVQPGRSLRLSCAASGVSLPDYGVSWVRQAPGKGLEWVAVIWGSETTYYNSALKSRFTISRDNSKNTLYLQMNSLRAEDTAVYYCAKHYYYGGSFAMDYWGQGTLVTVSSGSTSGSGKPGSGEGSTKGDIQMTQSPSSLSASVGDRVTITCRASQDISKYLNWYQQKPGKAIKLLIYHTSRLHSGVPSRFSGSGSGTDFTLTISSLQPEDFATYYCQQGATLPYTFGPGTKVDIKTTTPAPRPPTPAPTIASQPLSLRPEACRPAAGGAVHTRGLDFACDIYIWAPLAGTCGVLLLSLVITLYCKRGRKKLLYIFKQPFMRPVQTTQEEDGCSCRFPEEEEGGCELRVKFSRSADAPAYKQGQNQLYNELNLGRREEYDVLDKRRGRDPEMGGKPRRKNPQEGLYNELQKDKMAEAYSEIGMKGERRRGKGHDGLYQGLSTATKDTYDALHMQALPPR", "experiment": "flow cytometry; biotin-protein L and PE-streptavidin on H63 CAR-T lymphocytes"}, "[2]": {"target": "H63 CAR as expressed from H63 CAR-2A-TMEM59, on H63 CAR-2A-TMEM59-T lymphocytes", "sequence (chain, as listed by the source)": "as above", "experiment": "flow cytometry; biotin-protein L and PE-streptavidin on H63 CAR-2A-TMEM59-T lymphocytes"}}, "data": [{"substance": "biotin-protein L (ACROBIOSYSTEMS, RPL-P814R)", "values": [{"measurement": "CAR positive cells % (protein L-positive)", "setting": "[1]", "value": 82.7, "unit": "%"}, {"measurement": "CAR positive cells % (protein L-positive)", "setting": "[2]", "value": 83.2, "unit": "%"}]}]}
